# Assay results published in article PMC10607609, “The Functionality of IbpA from Acholeplasma laidlawii Is Governed by Dynamic Rearrangement of Its Globular–Fibrillar Quaternary Structure” (International Journal of Molecular Sciences, 2023).
# Key:
# [1] = target: full-length AlIbpA_(His6), small heat shock protein IbpA from Acholeplasma laidlawii (Acholeplasma laidlawii) (UniProt A9NFB2); experiment: BLI; BLItz; biotinylated AlIbpA_(His6) loaded on a streptavidin biosensor (2.0 nm); analyte 10 µM in PBS pH 7.4; 300 s association, 300 s dissociation; BSA control subtracted
# [2] = target: AlDnaKST, recombinant C-terminally StrepII-tagged DnaK (HSP70) from Acholeplasma laidlawii (Acholeplasma laidlawii) (UniProt A9NFN8); experiment: BLI; BLItz; biotinylated AlDnaKST or AlClpBST loaded on a streptavidin biosensor (2.0 nm); analyte in PBS pH 7.4; 300 s association, 300 s dissociation; BSA control subtracted
# [3] = target: AlClpBST, recombinant C-terminally StrepII-tagged ClpB (HSP100) from Acholeplasma laidlawii (Acholeplasma laidlawii); experiment: as above
# [4] = target: T1, AlDnaKST, recombinant C-terminally StrepII-tagged DnaK (HSP70) from Acholeplasma laidlawii (Acholeplasma laidlawii, UniProt A9NFN8 1-610, biotin (EZ-Link NHS-PEG4-biotin) where it was the protein immobilised on the streptavidin biosensor); experiment: BLI; BLItz; biotinylated AlIbpA_(His6) loaded on a streptavidin biosensor (2.0 nm); analyte 10 µM in PBS pH 7.4; 300 s association, 300 s dissociation; BSA control subtracted; details: both partners purified
# T1 construct: DnaK (HSP70) of Acholeplasma laidlawii, from a synthetic gene dnaK cloned in pET-28a(+); Plasmid pET-28a-AlDnaKST; source: E. coli BL21 (DE3), purified (Strep-tactin agarose); not shown: StrepII, C-terminal, kept
# [5] = target: T1, AlDnaKST, recombinant C-terminally …; experiment: BLI; BLItz; biotinylated AlDnaKST or AlClpBST loaded on a streptavidin biosensor (2.0 nm); analyte in PBS pH 7.4; 300 s association, 300 s dissociation; BSA control subtracted; details: both partners purified
molecule,measurement,setting,value
human insulin (ligand),Kd,[1],100 nM
"AlClpBST, recombinant C-terminally StrepII-tagged ClpB (HSP100) from Acholeplasma laidlawii (natural protein)",Kd,[1],1200 nM
same,Kd,[2],20300 nM
"AlIbpA∆N12_(His6)–insulin complex, chemically cross-linked with glutaraldehyde (from UniProt A9NFB2 13-137)",fold increase in KD against AlIbpA∆N12 (His6) alone,[2],2 fold
"full-length AlIbpA_(His6), small heat shock protein IbpA from Acholeplasma laidlawii (natural protein, UniProt A9NFB2 1-137, looked up, biotin (EZ-Link NHS-PEG4-biotin) where it was the protein immobilised on the streptavidin biosensor, Forms globular and fibrillar oligomers; also called HSP20; sHSP; source: E. coli BL21 (DE3), purified (Ni-NTA agarose)) MLSLLNKNRSFFDDFFEDFNVLNPVTTSNLMRTDIKETQNGYSLSVELPGFKKEDVKVSLEDGYLTIEAHTSKNSETKDQATKYIRKERYEGTMKRSYYVGNLHLDEINGTFENGMLHIELPKETKKEPEKRYLELK",Kd,[3],200 nM
same,Kd,[4],3100 nM
same,Kd,[5],100 nM
"AlIbpAΔN12_(His6), AlIbpA lacking 12 N-terminal amino acid residues (domain or fragment, Acholeplasma laidlawii, UniProt A9NFB2 13-137, looked up, The limit 13 is worked out from 'removal of 12 N-terminal amino acid residuals'; Forms mostly fibrils; also called AlIbpA∆N12_(His6); AlIbpAN12_(His6); source: E. coli BL21 (DE3), purified (Ni-NTA agarose)) DDFFEDFNVLNPVTTSNLMRTDIKETQNGYSLSVELPGFKKEDVKVSLEDGYLTIEAHTSKNSETKDQATKYIRKERYEGTMKRSYYVGNLHLDEINGTFENGMLHIELPKETKKEPEKRYLELK",fold decrease of binding affinity against full-length AlIbpA_(His6),[5],15 fold
